According to article PMC3575842:

Legend:
Experiment in all cases: MITOMI saturation binding
slbo = slbo (Drosophila melanogaster, UniProt Q02637 1-449)
gooseberry (gsb) = gooseberry (gsb) (Drosophila melanogaster, UniProt P09082 1-427)
gooseberry-neuro (gsb-n) = gooseberry-neuro (gsb-n) (Drosophila melanogaster, UniProt P09083 1-449)
z = molecular target: T1, z (Drosophila melanogaster, UniProt P09956 1-575)
T1 sequence: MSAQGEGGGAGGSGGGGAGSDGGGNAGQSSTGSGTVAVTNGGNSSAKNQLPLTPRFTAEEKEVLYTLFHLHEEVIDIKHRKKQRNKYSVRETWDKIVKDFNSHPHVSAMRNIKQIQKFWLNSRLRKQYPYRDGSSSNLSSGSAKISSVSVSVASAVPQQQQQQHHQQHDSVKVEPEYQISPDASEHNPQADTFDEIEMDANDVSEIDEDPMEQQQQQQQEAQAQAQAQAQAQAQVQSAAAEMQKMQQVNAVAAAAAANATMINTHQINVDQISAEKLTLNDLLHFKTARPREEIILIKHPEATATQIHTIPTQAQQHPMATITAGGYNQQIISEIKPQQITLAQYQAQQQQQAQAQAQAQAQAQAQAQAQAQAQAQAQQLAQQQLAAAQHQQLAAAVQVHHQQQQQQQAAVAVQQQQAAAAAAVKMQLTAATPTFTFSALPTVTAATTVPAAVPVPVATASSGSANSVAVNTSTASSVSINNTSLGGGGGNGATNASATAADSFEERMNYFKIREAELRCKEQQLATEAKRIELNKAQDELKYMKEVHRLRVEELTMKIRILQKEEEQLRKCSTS

Sox21a = Sox21a (Drosophila melanogaster, UniProt Q9VUD1 1-388)
Gsc = Gsc (Drosophila melanogaster, UniProt P54366 1-415)
Chain of Gsc (P54366 whole entry): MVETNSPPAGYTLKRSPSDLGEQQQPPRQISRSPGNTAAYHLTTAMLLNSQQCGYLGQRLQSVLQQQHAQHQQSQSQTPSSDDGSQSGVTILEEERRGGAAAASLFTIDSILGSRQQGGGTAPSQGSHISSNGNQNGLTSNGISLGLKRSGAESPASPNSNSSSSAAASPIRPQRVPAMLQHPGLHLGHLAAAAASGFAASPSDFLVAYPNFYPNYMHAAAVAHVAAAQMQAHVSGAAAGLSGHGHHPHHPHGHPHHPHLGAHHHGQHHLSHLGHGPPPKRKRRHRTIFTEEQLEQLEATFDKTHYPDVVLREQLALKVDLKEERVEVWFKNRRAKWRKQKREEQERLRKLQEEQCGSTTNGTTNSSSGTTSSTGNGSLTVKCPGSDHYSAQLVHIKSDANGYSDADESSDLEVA

Chain of gooseberry-neuro (gsb-n) (P09083 whole entry): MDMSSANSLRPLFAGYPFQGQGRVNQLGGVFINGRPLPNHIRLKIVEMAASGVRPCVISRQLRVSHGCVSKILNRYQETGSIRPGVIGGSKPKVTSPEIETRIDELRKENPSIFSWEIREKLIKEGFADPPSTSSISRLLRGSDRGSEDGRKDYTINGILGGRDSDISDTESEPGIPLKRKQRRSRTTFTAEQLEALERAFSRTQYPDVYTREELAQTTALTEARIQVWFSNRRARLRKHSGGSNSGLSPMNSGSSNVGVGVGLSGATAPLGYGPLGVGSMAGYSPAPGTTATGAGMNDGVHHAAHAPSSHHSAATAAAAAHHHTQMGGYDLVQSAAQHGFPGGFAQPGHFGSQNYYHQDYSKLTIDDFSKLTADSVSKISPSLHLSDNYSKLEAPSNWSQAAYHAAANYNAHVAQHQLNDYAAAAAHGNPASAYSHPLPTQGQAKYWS
Chain of slbo (Q02637 whole entry): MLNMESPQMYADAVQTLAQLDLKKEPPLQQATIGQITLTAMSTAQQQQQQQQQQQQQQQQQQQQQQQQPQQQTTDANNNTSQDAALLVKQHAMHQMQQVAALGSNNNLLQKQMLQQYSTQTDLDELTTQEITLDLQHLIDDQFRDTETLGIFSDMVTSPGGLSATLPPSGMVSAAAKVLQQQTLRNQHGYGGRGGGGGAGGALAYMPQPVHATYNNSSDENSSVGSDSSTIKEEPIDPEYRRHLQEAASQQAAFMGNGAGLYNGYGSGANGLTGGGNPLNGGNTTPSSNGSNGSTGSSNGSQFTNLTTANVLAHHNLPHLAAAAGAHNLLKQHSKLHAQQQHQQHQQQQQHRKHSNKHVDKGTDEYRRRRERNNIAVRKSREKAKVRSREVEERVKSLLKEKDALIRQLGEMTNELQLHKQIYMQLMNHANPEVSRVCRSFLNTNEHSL
Chain of gooseberry (gsb) (P09082 whole entry): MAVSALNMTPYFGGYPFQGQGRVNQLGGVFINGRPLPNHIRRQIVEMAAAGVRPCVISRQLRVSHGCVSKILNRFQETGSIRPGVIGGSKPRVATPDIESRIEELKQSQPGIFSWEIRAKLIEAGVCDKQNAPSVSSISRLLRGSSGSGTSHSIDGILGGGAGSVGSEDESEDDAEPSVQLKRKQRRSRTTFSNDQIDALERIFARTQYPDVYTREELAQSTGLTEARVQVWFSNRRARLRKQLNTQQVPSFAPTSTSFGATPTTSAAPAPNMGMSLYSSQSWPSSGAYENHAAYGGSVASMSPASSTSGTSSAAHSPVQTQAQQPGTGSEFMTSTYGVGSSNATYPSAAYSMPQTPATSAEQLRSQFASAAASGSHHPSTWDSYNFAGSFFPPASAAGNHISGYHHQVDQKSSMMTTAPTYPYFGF

B1: gt motif (dsDNA)
DNA 1: CGCATTACGTAATAACTCCGGCGGTATGAC
DNA 2: GTCATACCGCCGGAGTTATTACGTAATGCG
slbo
  binding result: binds

B2: prd motif (dsDNA)
DNA 1: CGCCCAATTTGTCACGCTCTCCGGCGGTATGAC
DNA 2: GTCATACCGCCGGAGAGCGTGACAAATTGGGCG
Gooseberry (gsb)
  binding result: binds
gooseberry-neuro (gsb-n)
  binding result: binds
z
  binding result: binds

B3: D motif (dsDNA)
DNA 1: CGCGTCCATTGTTCTCTCCGGCGGTATGAC
DNA 2: GTCATACCGCCGGAGAGAACAATGGACGCG
Sox21a
  binding result: binds

B4: bcd motif (dsDNA)
DNA 1: CGCGGATTAGCTCCGGCGGTATGAC
DNA 2: GTCATACCGCCGGAGCTAATCCGCG
z
  binding result: binds
Gsc
  binding result: binds
